For three molecules, τb (characteristic time of binding), apparent FRET percentage E pb (acceptor photobleaching) and apparent FRET efficiency E D results are on record in PMC4357434.

In assay [1] the target is RFP-tubulin (TagRFP-labeled α-tubulin) (UniProt P68363). The assay is described as follows: FRET or BRET; FRET-iMSD (spatiotemporal image correlation of the FRET signal), TIRF time series at 10 ms resolution, about 60 s, live co-transfected CHO cells, basal condition; characteristic time of binding τb from the fit of G(0,τ).
UniProt P68363, sequence (P68363 whole entry, the tested form may be a part): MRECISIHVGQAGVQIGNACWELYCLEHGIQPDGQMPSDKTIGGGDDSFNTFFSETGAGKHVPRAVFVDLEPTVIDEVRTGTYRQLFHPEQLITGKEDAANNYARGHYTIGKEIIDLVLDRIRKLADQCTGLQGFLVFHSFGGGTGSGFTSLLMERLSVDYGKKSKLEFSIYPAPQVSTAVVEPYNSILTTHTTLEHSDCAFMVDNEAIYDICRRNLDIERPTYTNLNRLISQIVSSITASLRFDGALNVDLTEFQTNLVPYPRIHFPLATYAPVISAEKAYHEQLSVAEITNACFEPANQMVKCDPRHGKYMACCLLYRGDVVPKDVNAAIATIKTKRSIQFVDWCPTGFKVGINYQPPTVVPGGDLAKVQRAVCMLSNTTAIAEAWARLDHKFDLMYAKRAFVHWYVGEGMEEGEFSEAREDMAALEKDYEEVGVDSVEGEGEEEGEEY
Assay [2] concerns the target TRPV1-RFP (Transient Receptor Potential Vanilloid 1 fused at its C-terminus to TagRFP) (UniProt O35433). The assay is described as follows: FRET or BRET; acceptor photobleaching FRET in TIRF mode on live co-transfected CHO cells; acceptor bleached at 561 nm; apparent FRET percentage E pb after Stepensky.
UniProt O35433, sequence (O35433 whole entry, the tested form may be a part): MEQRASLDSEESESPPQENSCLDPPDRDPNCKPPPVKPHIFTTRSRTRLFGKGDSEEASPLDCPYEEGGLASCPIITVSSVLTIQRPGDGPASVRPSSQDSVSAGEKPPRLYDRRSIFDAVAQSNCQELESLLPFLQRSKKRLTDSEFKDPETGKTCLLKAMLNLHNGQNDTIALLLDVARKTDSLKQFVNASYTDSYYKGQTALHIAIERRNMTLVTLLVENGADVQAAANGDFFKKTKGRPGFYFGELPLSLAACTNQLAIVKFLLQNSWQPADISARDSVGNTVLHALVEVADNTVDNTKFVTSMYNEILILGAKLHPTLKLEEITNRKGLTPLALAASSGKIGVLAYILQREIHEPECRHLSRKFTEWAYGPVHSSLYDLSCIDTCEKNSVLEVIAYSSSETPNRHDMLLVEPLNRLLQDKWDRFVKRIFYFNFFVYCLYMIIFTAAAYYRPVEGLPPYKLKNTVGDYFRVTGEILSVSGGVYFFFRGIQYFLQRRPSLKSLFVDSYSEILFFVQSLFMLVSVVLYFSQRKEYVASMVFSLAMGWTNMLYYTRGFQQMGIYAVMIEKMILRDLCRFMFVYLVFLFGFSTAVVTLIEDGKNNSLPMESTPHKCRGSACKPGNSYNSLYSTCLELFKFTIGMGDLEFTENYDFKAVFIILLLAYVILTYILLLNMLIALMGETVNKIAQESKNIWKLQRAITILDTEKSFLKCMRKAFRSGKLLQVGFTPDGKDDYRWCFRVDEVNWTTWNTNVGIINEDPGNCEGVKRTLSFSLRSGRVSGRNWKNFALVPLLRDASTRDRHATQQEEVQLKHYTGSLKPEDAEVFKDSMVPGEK
Assay [3] shares this target. The assay is described as follows: FRET or BRET; FRET-iMSD (spatiotemporal image correlation of the FRET signal), TIRF time series at 10 ms resolution, about 60 s, live co-transfected CHO cells, basal condition; characteristic time of binding τb from the fit of G(0,τ).
The target is the same in assay [4]. The assay is described as follows: FRET or BRET; sensitized emission FRET (SE-FRET) imaged in TIRF mode on the membrane of live CHO K1 cells co-transfected with donor- and acceptor-fused proteins; bleed-through corrected; donor-normalised apparent FRET efficiency E D; 37°C.

“TRPV1-EGFP (from UniProt O35433 1-838) (receptor)” displayed a τb (characteristic time of binding) in assay [1] above 60 s.

B1: Caveolin-1-EGFP (natural protein)
chain: MSGGKYVDSEGHLYTVPIREQGNIYKPNNKAMAEEMSEKQVYDAHTKEIDLVNRDPKHLNDDVVKIDFEDVIAEPEGTHSFDGIWKASFTTFTVTKYWFYRLLSALFGIPMALIWGIYFAILSFLHIWAVVPCIKSFLIEIQCISRVYSIYVHTFCDPFFEAVGKIFSNIRINMQKET
B1: in assay [2], the apparent FRET percentage E pb (acceptor photobleaching) was determined as 11%. Further, the τb (characteristic time of binding) in assay [3] was 16.4 s. Further, the apparent FRET efficiency E D in assay [4] turned out to be 4%.

B2: Caveolin-1-YFP (natural protein)
chain: MSGGKYVDSEGHLYTVPIREQGNIYKPNNKAMAEEMSEKQVYDAHTKEIDLVNRDPKHLNDDVVKIDFEDVIAEPEGTHSFDGIWKASFTTFTVTKYWFYRLLSALFGIPMALIWGIYFAILSFLHIWAVVPCIKSFLIEIQCISRVYSIYVHTFCDPFFEAVGKIFSNIRINMQKET
With B2, in assay [4], the apparent FRET efficiency E D is 30%.
